Source: patent US20220031841A1 (ABSCI, published 2022)

Legend:
Test in all cases: HuProt protein array, F635 z-score
[1] = target: T1, Chromobox protein homolog 1 (CBX1) (human, UniProt P83916 1-185)
T1 construct: The array carries full-length recombinant human proteins expressed in S. cerevisiae; also called Human Chromobox protein homolog 1
Excerpt: (§1) Large scale protein arrays are versatile and sensitive platforms for antibody specificity evaluation. They can be used for the evaluation of protein binding or affinity reagents that are widely employed in research and clinical applications. The microarray used in our target identification experiment provides the largest number of unique, full-length, individually purified human proteins on a single microscope slide. This allows thousands of interactions to be profiled in a high-throughput manner. The hill-length recombinant proteins are expressed in the yeast S. cerevisiae, purified, and printed on glass slides in duplicate along with a set of control proteins (GST, BSA, histones, IgG, etc.). Such microarray is not restricted to a particular type of surface coating, although the default is glass coated with ultra-thin nitrocellulose film for the non-covalent, yet irreversible, capture of active proteins to the surface. Fourteen Protein arrays were used for the antibody cross-reactivity assay of the samples. The antibodies were probed at […] on the arrays and incubated at room temperature for 1 hour. After probing, the arrays were washed according to the protocol and probed with Alexa-647-anti-human IgG […] specific secondary antibodies under conditions optimized for signal detection. The antibody-antigen binding score was calculated for each protein represented on the array and expressed as z-scores.
(§2) Antibody samples are probed on native HuProt arrays at 1 μg/ml and incubated at room temperature for 1 hour. After probing, the arrays are washed according to the standard protocols and probed with Alexa-647-anti-human IgG Fc gamma specific secondary antibodies under conditions optimized for signal detection.
(§3) Z score is the average Z score of the duplicate spots of a given protein (each protein is printed in duplicate on a HuProt™ array). The Z score of each spot on a given array is calculated according to the equation: […]

[2] = target: T2, Alpha-taxilin (TXLNA) also known as interleukin-14A (human, UniProt P40222 1-546)
T2 construct: The array carries full-length recombinant human proteins expressed in S. cerevisiae; also called IL-14A; TXLNA/IL-14A
Excerpt: as §1, §2, §3

[3] = target: T3, Cancer/testis antigen 1 (CTAG1A) (human, UniProt P78358 1-180)
T3 construct: The array carries full-length recombinant human proteins expressed in S. cerevisiae; also called NY-ESO-1; Cancer/Testis Antigen 1A
Excerpt: as §1, §2, §3

[4] = target: T4, O-linked N-acetylglucosamine (GlcNAc) transferase (OGT) (human, UniProt O15294 2-1046)
T4 construct: The array carries full-length recombinant human proteins expressed in S. cerevisiae; also called Human OGT
T4 sequence: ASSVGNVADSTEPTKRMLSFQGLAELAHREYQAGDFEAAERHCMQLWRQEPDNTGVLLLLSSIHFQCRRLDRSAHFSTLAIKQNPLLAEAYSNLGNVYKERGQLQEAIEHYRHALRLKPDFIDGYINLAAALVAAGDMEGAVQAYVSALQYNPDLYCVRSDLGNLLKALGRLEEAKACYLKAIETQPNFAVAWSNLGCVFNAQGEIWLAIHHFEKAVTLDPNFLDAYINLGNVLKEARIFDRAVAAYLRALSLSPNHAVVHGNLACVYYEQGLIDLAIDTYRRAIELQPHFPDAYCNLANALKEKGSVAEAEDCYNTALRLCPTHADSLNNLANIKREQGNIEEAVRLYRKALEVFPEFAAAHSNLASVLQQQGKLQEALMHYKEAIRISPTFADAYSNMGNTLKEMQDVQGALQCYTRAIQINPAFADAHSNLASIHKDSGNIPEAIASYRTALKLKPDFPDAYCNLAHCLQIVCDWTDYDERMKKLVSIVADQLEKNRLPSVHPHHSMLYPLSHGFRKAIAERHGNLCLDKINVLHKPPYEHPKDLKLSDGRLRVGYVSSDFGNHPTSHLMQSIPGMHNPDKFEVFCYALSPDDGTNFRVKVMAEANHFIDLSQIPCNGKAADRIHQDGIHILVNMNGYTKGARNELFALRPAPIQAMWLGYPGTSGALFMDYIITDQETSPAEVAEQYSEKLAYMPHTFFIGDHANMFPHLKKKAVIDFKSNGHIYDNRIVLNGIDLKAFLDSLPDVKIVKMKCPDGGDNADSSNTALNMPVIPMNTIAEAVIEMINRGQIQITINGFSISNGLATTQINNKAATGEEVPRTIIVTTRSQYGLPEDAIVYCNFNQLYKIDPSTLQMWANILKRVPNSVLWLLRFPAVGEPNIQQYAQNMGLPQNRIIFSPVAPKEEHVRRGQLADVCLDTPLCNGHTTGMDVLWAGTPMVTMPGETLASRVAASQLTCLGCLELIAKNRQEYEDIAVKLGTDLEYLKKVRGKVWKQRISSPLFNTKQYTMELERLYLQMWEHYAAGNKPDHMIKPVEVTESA
Excerpt: as §1, §2, §3

Measured: binding result

T1 sequence (P83916 whole entry): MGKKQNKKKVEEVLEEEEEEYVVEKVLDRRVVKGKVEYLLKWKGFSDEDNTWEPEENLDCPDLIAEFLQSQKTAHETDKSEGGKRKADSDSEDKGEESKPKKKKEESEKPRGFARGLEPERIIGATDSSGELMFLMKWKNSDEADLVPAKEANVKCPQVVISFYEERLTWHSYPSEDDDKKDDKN
T3 sequence (P78358 whole entry): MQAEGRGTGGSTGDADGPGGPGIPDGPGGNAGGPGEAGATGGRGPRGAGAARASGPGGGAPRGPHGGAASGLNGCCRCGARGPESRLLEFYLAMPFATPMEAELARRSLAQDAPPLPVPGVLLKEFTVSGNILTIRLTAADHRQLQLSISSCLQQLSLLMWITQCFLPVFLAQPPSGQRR
T2 sequence (P40222 whole entry): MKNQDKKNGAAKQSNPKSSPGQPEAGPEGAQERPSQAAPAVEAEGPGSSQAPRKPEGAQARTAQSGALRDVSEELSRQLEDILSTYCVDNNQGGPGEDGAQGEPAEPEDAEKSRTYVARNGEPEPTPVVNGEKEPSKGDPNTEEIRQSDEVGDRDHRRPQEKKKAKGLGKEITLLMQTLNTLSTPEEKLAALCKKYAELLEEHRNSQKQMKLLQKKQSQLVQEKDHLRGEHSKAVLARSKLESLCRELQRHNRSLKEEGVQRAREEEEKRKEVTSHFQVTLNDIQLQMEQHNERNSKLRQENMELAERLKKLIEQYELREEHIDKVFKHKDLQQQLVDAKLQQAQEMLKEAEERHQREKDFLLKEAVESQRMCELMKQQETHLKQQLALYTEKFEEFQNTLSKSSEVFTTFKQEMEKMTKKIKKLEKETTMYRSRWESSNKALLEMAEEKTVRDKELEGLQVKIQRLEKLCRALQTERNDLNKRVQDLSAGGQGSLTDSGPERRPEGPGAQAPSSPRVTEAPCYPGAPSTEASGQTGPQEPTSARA

B1: TMEL1002 (antibody, V domains shown)
VH: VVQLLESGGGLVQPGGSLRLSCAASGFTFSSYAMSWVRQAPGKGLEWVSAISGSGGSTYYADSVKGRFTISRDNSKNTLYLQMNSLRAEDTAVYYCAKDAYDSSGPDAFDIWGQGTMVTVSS
VL: ASALTQPASVSGSPGQSITISCTGTSSDVGDYNYVSWYQQHPGKAPKLMIYDVSNRPSGVSNRFSGSKSGNTASLTISGLQAEDEADYYCSSYTSSSTLVFGGGTKLTVLG
no binding (tested: 1 µg/ml): [1] | [2] | [3] | [4]

B2: TMEL1014 (antibody, V domains shown)
VH: SVQLVESGGGVVQPGRSLRLSCAASGFTFSSYTMHWVRQAPGKGLEWVALISYDGSNKYYADSVKGRFTISRDNPKNTLYLQMNSLRVEDTAVYYCARDWTLGYWGQGTLVTVSS
VL: VSSELTQDPAVSVALGQTVRITCQGDSLRNYYANWYQQKPGQAPILVIYDKNNRPSGIPDRFSGSSSGNTASLTITGAQAEDEADYYCNSRDSSGYHLVFGGGTKLTVLG
notes: It was detected with an anti-human IgG Fc gamma secondary antibody
no binding (tested: 1 µg/ml): [1] | [2] | [3]

B3: TMEL1004 (antibody, V domains shown)
VH: QITLKESGPTLVKPTQTLTLTCTFSGFSLNTPGVGVGWIRQPPGKALEWLALIYWDDDKRYRPSLESRLTITKDTSKNHVVLTMTNMDPVDTATYFCAHKNLQYSEWFDPWGQGTLVIVSS
VL: EMVLTQSPATLSLSPGERATLSCRASQSVSRNSLAWYQQRPGQTPRLLIYGASSRATGIPDRFSGSGSGTDFTLIISRLEPEDFAVYFCLQYDESPYTFGQGAKLEIKR
no binding (tested: 1 µg/ml): [1] | [2] | [3] | [4]

B4: TMEL1012 (antibody, V domains shown)
VH: PLQLQESGPGLVKPSETLSLTCTVSGDSITTTYYWGWIRQPPGKGLEWIASIYFTGSTFHNPSLKSRVTMSVDTSKNQFSLNLSSVTAADTAVYYCARRVGNWNYVWFDPWGQGTLVSVSS
VL: AYVLTQPPSVSVAPGQTARMTCGGNNIGSKSVHWYRQRPGQAPVLVVYDDTDRPSGIPERFSGSNSGNTATLTISRVEAGDEADYYCQVWDTNSDHVVFGGGTKLTVLG
no binding (tested: 1 µg/ml): [1] | [2] | [3] | [4]

B5: TMEL1013 (antibody, V domains shown)
VH: PVQLVQSGAEVKKPGSSVKVSCKASGGTFSSYTINWVRQAPGQGLEWMGRIIPILGVANYAQKFQGRVTITADKSTSTAYMDLSSLRSEDTAVYYCAREWERAFDYWGQGTLVTVSS
VL: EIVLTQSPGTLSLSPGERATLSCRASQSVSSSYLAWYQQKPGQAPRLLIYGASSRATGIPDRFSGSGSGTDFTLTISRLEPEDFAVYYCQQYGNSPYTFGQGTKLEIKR
no binding (tested: 1 µg/ml): [1] | [2] | [3] | [4]

B6: TMEL1008 (antibody, V domains shown)
VH: QVQLVQSGAEVKKPGSSVKVSCKASGGTFNRDGIIWVRQAPGQGLEWMGRIIPILGIANYAQKFQGRVTIIADKSTSTAYMELSSLRSEDTAVYYCARESEVGRGMDVWGQGTTVTVSS
VL: ASALTQPASVSGSPGQSITISCTGTSSDVGDYNYVSWYQQHPGKAPKLMIYDVSNRPSGVSHRFSGSKSGNTASLTISGLQAEDEADYYCSSYTISSTLGVFGPGTKVTVLG
notes: as for B2
no binding (tested: 1 µg/ml): [1] | [2] | [3] | [4]

B7: TMEL1009 (antibody, V domains shown)
VH: PVQLVQSGAEVKKPGSSVKVSCRASGGTFSNYGLNWVRQAPGQGLEWMGGIIPIFGSVNYAQKFQDRVTITADESTSTTYMDLNSLRSEDTAVYYCATERGHNMERAFDFWGQGTLVTVSS
VL: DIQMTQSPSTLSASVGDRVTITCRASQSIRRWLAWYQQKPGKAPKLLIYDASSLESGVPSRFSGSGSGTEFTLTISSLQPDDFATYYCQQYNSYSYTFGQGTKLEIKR
no binding (tested: 1 µg/ml): [1] | [2] | [3] | [4]
